Experimental findings from article PMC3323551 are described below.

The target in series [1] is T1, His-OpaR (Vibrio parahaemolyticus RIMD 2210633) (UniProt Q79YV4).
T1 sequence: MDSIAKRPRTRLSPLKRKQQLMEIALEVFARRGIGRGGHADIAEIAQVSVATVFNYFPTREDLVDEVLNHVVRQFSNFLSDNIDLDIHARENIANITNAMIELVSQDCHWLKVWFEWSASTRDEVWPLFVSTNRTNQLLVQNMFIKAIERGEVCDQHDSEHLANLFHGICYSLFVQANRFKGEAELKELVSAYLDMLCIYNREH
The series can be described thus: DNase I footprinting. The note with it: 1 mM MgCl2, 0.5 mM EDTA, 0.5 mM DTT, 50 mM NaCl, 10 mM Tris-HCl pH 7.5, 0.05 mg/ml poly(dI-dC), room temperature, 30 min; footprinting same buffer, then ….

Series [2] deals with T1, His-OpaR (Vibrio parahaemolyticus RIMD 2210633). The series can be described thus: EMSA. The note with it: 1 mM MgCl2, 0.5 mM EDTA, 0.5 mM DTT, 50 mM NaCl, 10 mM Tris-HCl pH 7.5, 0.05 mg/ml poly(dI-dC), room temperature, 30 min; footprinting same buffer, then ….

With “AGTGGGTTGAAAGTCACATCCTTTTGCGGAAAATTCTTGGGAGCGCTGCCAAATTTTCGAAAGTTTACAGCAAAACTTATCAATAATAATGACATTACTGTCTATAAATTATCCATCAGATGTTGACCTTGTGCATATGCACCATTACACTCATCACTGCTTAAAGCAATTATTAAAATAATCAATTAGGGGGTTACCCCCAACAACAACTCAAATGGCAAGGAAAATGGATATGGACTCAATTGCAAAGAGACCTAGAACTAGGC (double strand) [opaR promoter footprinting fragment]”, the binding result in series [1] is listed as “binds”.

“AACTTCCAACCACATAATTGCGCAGCAAATAACCAGACATTTACACTACAAAAAACCCATAAAATACCAACAAATTAGAATTATTAACTACAAAATAACTCTATTGAGTATTATGTTAGTTTTTCAGGGTAATTTTGTCCTAGTATTCCACTTCATGCTTATTATTTATATACTACTTGCCTGCTGAGAGCTCATAAATCCAATCATACCTGCTCCAGCC (double strand) [aphA promoter fragment]”: the binding result in series [2] and in series [1] was “binds” in each case.

With “AACCGTGAAATCCATTTACTGAGGTATTTTTCCTCATTAATTAGCAGTATAGGGTAAAAATATGAAAGCTAATGGATAATCATAAAGTAGTAGTTGGTTTTTTGCTGAGAAAGTGATTAGTAGCAATGTAACAAGTGGCATATTTGCATGCTATTGCATTTTGCAAATGCAATTTGCGAAAGTGCTGGTTAATAATGCGTCG (double strand) [qrr4 promoter fragment]”, the binding result in series [2] and in series [1] was “binds” each time.

Take “GGATAAGTTCAAATTGGATCCAGCCTTAGCAGGCTCGGTTATTCTAACGACAGTGACAGATGTGGTTGGTTTTTTCGCCTTTTTGGGAACGGCGAGTTTAGTCATGCTCTAAAAAGTCCACTGTTTATTAATCAATCATTAGCATAATAGAGACAAATTGCATAACGCACTTGCAAATTGCAAAAACATTCAAAGTTTAAGCAACGTATGTCACAGAAACCAC (double strand) [qrr3 promoter fragment]”: the binding entry in series [2] and in series [1] was “binds” in each case.

For the sequence “AGTGGTTGCTTATGAATCAATCCCAGGAAAAGGCGAGAACAGCGAACCTTCAACTCGTTAACATTTTATTTTCATTTACATTTTGACTAACTCAATTGTTAATAAATTACCTAAATTGCATTTTGAAATTGCAGAATGCAATTAAGTTTTGTTTTTTGCAAAAATTTATATAGGCAATATCAGTTTATATGAGATCTTGTGCCCAAAAATAAAGCTTTGAAAATTGGCATGATTAATGCATAATACTTCTCGACC (double strand) [qrr2 promoter fragment]”, the binding result in series [2] and in series [1] was “binds” each time.
